US20030105278A1 (MERK, published 2003)
Read-outs that look alike come from different tables or passages of the source. Values belong to the binder of their own block, whether it stands above or below them. Bridges are numbered along the chain shown (N, C = ends). Where no end group is shown, it is not given here. [ ]: non-standard residue; d: D form. Ava = NCCCCC(=O)O

Tests used:
[1] = molecular target: T1, human MCH receptor expressed from the open reading frame cDNA SEQ. ID. NO. 1 in 293-AEQ17 cells (human, UniProt Q99705 1-353); test: cell-based or functional assay
T1 sequence (Q99705 whole entry): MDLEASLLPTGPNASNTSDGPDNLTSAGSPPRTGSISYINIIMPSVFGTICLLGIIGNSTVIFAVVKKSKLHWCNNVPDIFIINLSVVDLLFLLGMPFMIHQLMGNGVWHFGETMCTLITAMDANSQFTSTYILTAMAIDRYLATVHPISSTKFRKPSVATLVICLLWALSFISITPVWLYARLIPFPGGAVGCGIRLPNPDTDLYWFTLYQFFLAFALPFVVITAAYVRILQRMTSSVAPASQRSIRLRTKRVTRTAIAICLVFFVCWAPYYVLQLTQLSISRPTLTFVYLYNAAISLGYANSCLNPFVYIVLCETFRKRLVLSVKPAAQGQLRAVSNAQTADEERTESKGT

[2] = molecular target: T2, human MCH receptor (membranes from a stable CHO or HEK-293 cell line) (human, UniProt Q99705 1-353); test: competition vs [125I]-human MCH (Phe13,Tyr19); human MCH receptor cell membranes (Example 3)
T2 construct: whole, on cells; also called cloned human MCH receptor (CHO clone)
T2 sequence (Q99705 whole entry): as above

[3] = molecular target: T1, human MCH receptor expressed from the …; test: cell-based or functional assay; remark: listed apart in the source
[4] = molecular target: T2, human MCH receptor (membranes from a …); test: SPA competition vs [125I]-human MCH (Phe13,Tyr19); human MCH receptor cell membranes
[5] = molecular target: T1, human MCH receptor expressed from the …; test: cell-based or functional assay; remark: listed apart in the source
[6] = molecular target: T1, human MCH receptor expressed from the …; test: cell-based or functional assay; remark: listed apart in the source
[7] = molecular target: T1, human MCH receptor expressed from the …; test: cell-based or functional assay; remark: listed apart in the source
[8] = molecular target: T1, human MCH receptor expressed from the …; test: cell-based or functional assay; remark: listed apart in the source
[9] = molecular target: T1, human MCH receptor expressed from the …; test: cell-based or functional assay; remark: listed apart in the source
[10] = molecular target: T2, human MCH receptor (membranes from a …); test: competition vs [125I]-human MCH (Phe13,Tyr19); human MCH receptor cell membranes (Example 3); remark: listed apart in the source
[11] = molecular target: T2, human MCH receptor (membranes from a …); test: as above; remark: listed apart in the source
[12] = molecular target: T2, human MCH receptor (membranes from a …); test: as above; remark: listed apart in the source
[13] = molecular target: T2, human MCH receptor (membranes from a …); test: as above; remark: listed apart in the source
[14] = molecular target: T2, human MCH receptor (membranes from a …); test: as above; remark: listed apart in the source
[15] = molecular target: T2, human MCH receptor (membranes from a …); test: competition vs [125I]-human MCH (Phe13,Tyr19); human MCH receptor cell membranes (Example 3); unit of the concentration '1' not given
[16] = molecular target: human MCH receptor (membranes from a stable CHO or HEK-293 cell line) (human) (UniProt Q99705); test: competition vs [125I]-human MCH (Phe13,Tyr19); human MCH receptor cell membranes (Example 3)
Sequence of human MCH receptor (membranes from a stable CHO or HEK-293 cell line) (human) (Q99705 whole entry): as above

[17] = molecular target: T2, human MCH receptor (membranes from a …); test: competition vs [125I]-human MCH (Phe13,Tyr19); human MCH receptor cell membranes (Example 3); unit of the concentration '1' not given; remark: listed apart in the source

B1: MCH analog SEQ. ID. NO. 25 (N-Me-Nle^8) (peptide)
peptide: RCXLGRVYRPC
modifications: N-methyl-norleucine at position 8; N-terminal acetyl, C-terminal amide, Cys-Cys disulfide as in SEQ. ID. NO. 7
notes: ID; NO; 7 peptide; MCH position numbering
Activation % [1]: 110%
EC50 [1]: 20 nM
IC50 [2]: 0.16 nM

B3: truncated MCH analog SEQ. ID. NO. 7: Ac-Arg-Cys-Met-Leu-Gly-Arg-Val-Tyr-Arg-Pro-Cys-amide (peptide)
peptide: Ac-RCMLGRVYRPC-NH2
modifications: disulfide 2-11 (inferred)
notes: Corresponds to MCH positions 6-16; also called ID; NO; 7 MCH analog
% Activation at 10 µM [3]: 123%
EC50 [3]: 18 nM
Activation % [5]: 99%
EC50 [5]: 20 nM
Activation % [1]: 99%
EC50 [1]: 20 nM
Activation % [6]: 99%
EC50 [6]: 20 nM
Activation % [7]: 99%
EC50 [7]: 20 nM
Activation % [8]: 99%
EC50 [8]: 20 nM
Activation % [9]: 99%
EC50 [9]: 20 nM
IC50 [4]: 0.12 nM
IC50 [10]: 0.5 nM
IC50 [2]: 1.4 nM
IC50 [11]: 1.4 nM
IC50 [12]: 0.5 nM
IC50 [13]: 1.4 nM
IC50 [14]: 1.4 nM

B4: MCH analog SEQ. ID. NO. 63 (position 13: Trp) (peptide)
peptide: Ac-RCMLGRVWRPC-NH2
modifications: disulfide 2-11
SMILES: CSCC[C@@H]1NC(=O)[C@@H](NC(=O)[C@H](CCCNC(=N)N)NC(C)=O)CSSC[C@@H](C(N)=O)NC(=O)[C@@H]2CCCN2C(=O)[C@H](CCCNC(=N)N)NC(=O)[C@H](Cc2c[nH]c3ccccc23)NC(=O)[C@H](C(C)C)NC(=O)[C@H](CCCNC(=N)N)NC(=O)CNC(=O)[C@H](CC(C)C)NC1=O
notes: as for B1
Activation % [8]: 83%
EC50 [8]: 890 nM
IC50 [13]: 3.8 nM

B5: MCH analog SEQ. ID. NO. 62 (position 13: Phe) (peptide)
peptide: Ac-RCMLGRVFRPC-NH2
modifications: disulfide 2-11
SMILES: CSCC[C@@H]1NC(=O)[C@@H](NC(=O)[C@H](CCCNC(=N)N)NC(C)=O)CSSC[C@@H](C(N)=O)NC(=O)[C@@H]2CCCN2C(=O)[C@H](CCCNC(=N)N)NC(=O)[C@H](Cc2ccccc2)NC(=O)[C@H](C(C)C)NC(=O)[C@H](CCCNC(=N)N)NC(=O)CNC(=O)[C@H](CC(C)C)NC1=O
notes: as for B1
Activation % [8]: 96%
EC50 [8]: 46 nM
IC50 [13]: 1 nM

B6: MCH analog SEQ. ID. NO. 64 (position 13: His) (peptide)
peptide: Ac-RCMLGRVHRPC-NH2
modifications: disulfide 2-11
SMILES: CSCC[C@@H]1NC(=O)[C@@H](NC(=O)[C@H](CCCNC(=N)N)NC(C)=O)CSSC[C@@H](C(N)=O)NC(=O)[C@@H]2CCCN2C(=O)[C@H](CCCNC(=N)N)NC(=O)[C@H](Cc2c[nH]cn2)NC(=O)[C@H](C(C)C)NC(=O)[C@H](CCCNC(=N)N)NC(=O)CNC(=O)[C@H](CC(C)C)NC1=O
notes: as for B1
Activation % [8]: 66%
EC50 [8]: 3400 nM
IC50 [13]: 13.1 nM

B7: MCH analog SEQ. ID. NO. 70 (Ava^9,10) (peptide)
peptide: Ac-RCM[Ava][Ava]RVYRPC-NH2
modifications: disulfide 2-11; not fully specified
notes: as for B1
Activation % [9]: 82%
IC50 [14]: 3.7 nM

B9: MCH analog SEQ. ID. NO. 58 (position 10: D-Glu) (peptide)
peptide: RCMLXRVYRPC
modifications: D-Glu at position 10; N-terminal acetyl, C-terminal amide, Cys-Cys disulfide as in SEQ. ID. NO. 7
notes: as for B1
EC50 [7]: > 10000 nM
% @ 1 (in the IC50 column) [15]: 40%

B10: MCH analog SEQ. ID. NO. 15 (D-Arg^6) (peptide)
peptide: XCMLGRVYRPC
modifications: D-Arg^6; N-terminal acetyl, C-terminal amide, Cys-Cys disulfide as in SEQ. ID. NO. 7
notes: as for B1
Activation % [5]: 86%
EC50 [5]: 45 nM
IC50 [10]: 0.46 nM

B11: MCH analog SEQ. ID. NO. 71 (D-Arg^6,Ava^9,10) (peptide)
peptide: Ac-[dR]CM[Ava][Ava]RVYRPC-NH2
modifications: disulfide 2-11; not fully specified
notes: as for B1
Activation % [9]: 72%
IC50 [14]: 3.7 nM

B14: MCH analog SEQ. ID. NO. 26 (N-Me-Leu^9) (peptide)
peptide: RCMXGRVYRPC
modifications: N-methyl-leucine at position 9; N-terminal acetyl, C-terminal amide, Cys-Cys disulfide as in SEQ. ID. NO. 7
notes: as for B1
Activation % [1]: 3%
EC50 [1]: > 10000 nM
% @ 1 (in the IC50 column) [17]: 10%

B15: MCH analog SEQ. ID. NO. 27 (Sar^10) (peptide)
peptide: RCMLXRVYRPC
modifications: sarcosine at position 10; N-terminal acetyl, C-terminal amide, Cys-Cys disulfide as in SEQ. ID. NO. 7
notes: as for B1
Activation % [1]: 95%
IC50 [2]: 2.3 nM

The next lines start with the values.

% Activation at 10 µM [3]: 123%
EC50 [3]: 36 nM
IC50 [4]: 0.16 nM
B2: truncated MCH analog SEQ. ID. NO. 8: Ac-Arg-Cys-Met-Leu-Gly-Arg-Val-Phe-Arg-Pro-Cys-Tyr-amide (peptide)
peptide: Ac-RCMLGRVFRPCY-NH2
modifications: disulfide 2-11
SMILES: CSCC[C@@H]1NC(=O)[C@@H](NC(=O)[C@H](CCCNC(=N)N)NC(C)=O)CSSC[C@@H](C(=O)N[C@@H](Cc2ccc(O)cc2)C(N)=O)NC(=O)[C@@H]2CCCN2C(=O)[C@H](CCCNC(=N)N)NC(=O)[C@H](Cc2ccccc2)NC(=O)[C@H](C(C)C)NC(=O)[C@H](CCCNC(=N)N)NC(=O)CNC(=O)[C@H](CC(C)C)NC1=O

Activation % [9]: 75%
EC50 [9]: 406 nM
IC50 [14]: 6.2 nM
B8: MCH analog SEQ. ID. NO. 72 (Ava^14,15) (peptide)
peptide: Ac-RCMLGRVY[Ava][Ava]C-NH2
modifications: disulfide 2-11
notes: as for B1

Activation % [9]: 3%
EC50 [9]: > 10000 nM
IC50 [16]: 50 nM
B12: MCH analog SEQ. ID. NO. 76 (Ava^9,10,Ava^14,15) (peptide)
peptide: Ac-RCM[Ava][Ava]RVY[Ava][Ava]C-NH2
modifications: disulfide 2-11; not fully specified

Activation % [9]: 105%
IC50 [14]: 0.5 nM
B13: MCH analog SEQ. ID. NO. 77 (Nle^8) (peptide)
peptide: RCXLGRVYRPC
modifications: norleucine at position 8; N-terminal acetyl, C-terminal amide, Cys-Cys disulfide as in SEQ. ID. NO. 7
notes: as for B1

% Activation at 10 µM [3]: 74%
EC50 [3]: 300 nM
IC50 [4]: 1.6 nM
B16: truncated MCH analog SEQ. ID. NO. 9: Ac-Cys-Met-Leu-Gly-Arg-Val-Tyr-Arg-Pro-Cys-amide (peptide)
peptide: Ac-CMLGRVYRPC-NH2
modifications: disulfide 1-10
SMILES: CSCC[C@@H]1NC(=O)[C@@H](NC(C)=O)CSSC[C@@H](C(N)=O)NC(=O)[C@@H]2CCCN2C(=O)[C@H](CCCNC(=N)N)NC(=O)[C@H](Cc2ccc(O)cc2)NC(=O)[C@H](C(C)C)NC(=O)[C@H](CCCNC(=N)N)NC(=O)CNC(=O)[C@H](CC(C)C)NC1=O

% Activation at 10 µM [3]: 99%
IC50 [4]: 0.3 nM
B17: truncated MCH analog SEQ. ID. NO. 10: Asp-Phe-Asp-Met-Ieu-Arg-Cys-Met-Ieu-Gly-Arg-Val-Tyr-Arg-Pro-Cys-amide (peptide)
peptide: DFDMLRCMLGRVYRPC-NH2
modifications: disulfide 7-16; N-terminus assumed
SMILES: CSCC[C@@H]1NC(=O)[C@@H](NC(=O)[C@H](CCCNC(=N)N)NC(=O)[C@H](CC(C)C)NC(=O)[C@H](CCSC)NC(=O)[C@H](CC(=O)O)NC(=O)[C@H](Cc2ccccc2)NC(=O)[C@@H](N)CC(=O)O)CSSC[C@@H](C(N)=O)NC(=O)[C@@H]2CCCN2C(=O)[C@H](CCCNC(=N)N)NC(=O)[C@H](Cc2ccc(O)cc2)NC(=O)[C@H](C(C)C)NC(=O)[C@H](CCCNC(=N)N)NC(=O)CNC(=O)[C@H](CC(C)C)NC1=O

Activation % [9]: 3%
IC50 [14]: 700 nM
B18: MCH analog SEQ. ID. NO. 74 (D-Pro^10,Ava^14,15) (peptide)
peptide: RCMLXRVYXXC
modifications: not fully specified; D-Pro^10; Ava (5-aminopentanoic acid) in place of positions 14,15; N-terminal acetyl, C-terminal amide, Cys-Cys disulfide as in SEQ. ID. NO. 7
notes: as for B1
